Positions count from the first letter of the chain named.

The target of assay [1] is T1, human CD47 (human, UniProt Q08722 19-141, limits assumed).
T1 construct: also called hCD47
Put plainly: affinity ranking told with the hemagglutination test. The method, then: CD47 MAbs were tested for their ability to induce homotypic clustering of erythrocytes (hemagglutination). 10 microliters of human whole blood was diluted in 40 microliters of antibody solution in PBS at different concentrations (range: 0.003 microg/ml to 50 microg/ml final Mab concentration) in flat-bottom 96 well plates. The blood-antibody mix was incubated O/N at 37° C. without shaking. At the end of the incubation, the plates were agitated manually, tilted at about […], and let to rest for about 10 minutes.

The target in assay [2] is T2, human CD47 on the cell surface (human, UniProt Q08722 19-323).
T2 construct: whole, on cells; also called huCD47; native CD47
Put plainly: CD47-SIRPα competitive binding assay: His-tagged soluble human SIRPα (200 ng/ml) on hCD47-transfected CHO cells, antibody 3.3 pM-330 nM; blocked ligand SIRPα.

The target in assay [3] is T2, human CD47 on the cell surface. Put plainly: CD47-SIRPα inhibition assay on Raji cells (competition with soluble SIRPα).
For assay [4], the target named is T3, human CD19 on Raji cells (human, UniProt P15391 20-556).
T3 construct: whole, on cells; also called native form of hCD19
T3 sequence (looked up): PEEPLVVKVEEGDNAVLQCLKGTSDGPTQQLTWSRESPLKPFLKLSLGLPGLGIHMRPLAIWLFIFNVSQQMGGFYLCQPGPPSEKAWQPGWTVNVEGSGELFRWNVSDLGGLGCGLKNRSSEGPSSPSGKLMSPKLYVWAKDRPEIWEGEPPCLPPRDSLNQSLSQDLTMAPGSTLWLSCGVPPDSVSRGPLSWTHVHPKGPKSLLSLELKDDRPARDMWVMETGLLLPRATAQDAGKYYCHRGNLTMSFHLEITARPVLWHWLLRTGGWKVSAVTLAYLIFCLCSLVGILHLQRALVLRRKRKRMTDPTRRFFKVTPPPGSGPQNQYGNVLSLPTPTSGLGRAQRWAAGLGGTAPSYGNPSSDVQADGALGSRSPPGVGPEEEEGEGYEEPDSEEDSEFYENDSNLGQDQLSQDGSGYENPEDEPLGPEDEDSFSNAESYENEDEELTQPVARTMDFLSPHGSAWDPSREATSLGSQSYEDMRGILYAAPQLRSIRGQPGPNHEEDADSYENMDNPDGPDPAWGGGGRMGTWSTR
Put plainly: FACS on Raji cells (CD19-positive), dose-response.

The target in assay [5] is T4, human CD19 (human, UniProt P15391 20-291, limits assumed).
T4 construct: also called hCD19
T4 sequence (looked up): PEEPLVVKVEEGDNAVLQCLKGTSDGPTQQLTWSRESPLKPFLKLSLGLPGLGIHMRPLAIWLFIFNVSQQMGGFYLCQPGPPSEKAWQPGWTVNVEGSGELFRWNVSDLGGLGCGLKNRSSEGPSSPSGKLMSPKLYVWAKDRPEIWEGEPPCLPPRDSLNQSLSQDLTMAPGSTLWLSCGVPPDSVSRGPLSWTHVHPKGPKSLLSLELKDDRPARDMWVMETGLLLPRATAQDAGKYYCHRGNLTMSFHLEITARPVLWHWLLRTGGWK
Put plainly: affinity maturation of B7.

Assay [6] concerns the target T4, human CD19. Put plainly: parental antibody, weaker than D11.

B1: Ke8A3 antibody (antibody, human IgG1, kappa, V domains shown)
VH: not shown
VL: DIQMTQSPSSLSASVGDRVTITCRVSQSISKYLNWYQQKPGKAPKLLIYAASSLQSGVPSRFSGSGSGTDFTLTISSLQPEDFATYYCQQRHPRGPSTFGQGTKVEIKR
notes: IgG
With B1, the binding result in assay [1] and in assay [2] was “binds” in each case.

B2: CD47xCD19 bispecific antibody with CD47 arm Ke8G11 (bispecific antibody)
heavy: not shown
light 1: DIQMTQSPSSLSASVGDRVTITCRASQSIGRYLNWYQQKPGKAPKLLIYAASSLQSGVPSRFSGSGSGTDFTLTISSLQPEDFATYYCQQMHPRGPKTFGQGTKVEIKRTVAAPSVFIFPPSDEQLKSGTASVVCLLNNFYPREAKVQWKVDNALQSGNSQESVTEQDSKDSTYSLSSTLTLSKADYEKHKVYACEVTHQGLSSPVTKSFNRGEC
light 2: NFMLTQPHSVSESPGKTVTISCTRSSGSIEDKYVQWYQQRPGSSPTIVIYYDNERPSGVPDRFSGSIDSSSNSASLTISGLKTEDEADYYCQTYDQSLYGWVFGGGTKLTVLGQPKAAPSVTLFPPSSEELQANKATLVCLISDFYPGAVTVAWKADSSPVKAGVETTTPSKQSNNKYAASSYLSLTPEQWKSHRSYSCQVTHEGSTVEKTVAPTECS
notes: also called Ke8G11 CD47Xcd19 BsAb; κλ body
For B2, the IC50 in assay [3] turned out to be 0.066 nM.

B3: D11 antibody (antibody, human IgG1, lambda, V domains shown)
VH: not shown
VL: NFMLTQPHSVSESPGKTVTISCTRSSGSIDDKFVQWYQQRPGSSPTTVIYYDNIRPSGVPDRFSGSIDSSSNSASLTISGLKTEDEADYYCQSYDASLYGWVFGGGTKLTVLG
notes: anti-CD19, IgG, lambda; also called L7B7_D11
B3: the binding result in assay [4] and in assay [5] was “binds” throughout.

B4: B7 antibody (antibody, human IgG1, lambda, V domains shown)
VH: not shown
VL: B3 VL with D30A, F33Y, Y51E, I54Q, A96S
notes: anti-CD19, IgG, lambda (IGLV6-57); parental clone; also called 1B7
Take B4: the binding result in assay [4] and in assay [6] was “binds” throughout.

One may read the IC50 as the concentration that inhibits the measured activity by half. A lower IC50 goes with inhibition by little substance.

The record behind these values is US20240400720A1 (NOVIMMUNE S A, published 2024).
